The supplement of paper PMC9233669
Fewer inactive variants are shown than the library holds.

What was measured:
[1] = system: biotinyl-Trp-oxazolone; assay: self-aminoacylation, catalytic enhancement (BWO) (fold over background); higher = more active; k-Seq, kA / k0A0; sequences stand for … in GGGAAUGGAUCCACAUCUACGAAUUC…UUCACUGCAGACUUGACGAAGCUG
In short: (§1)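 Working in 50 μL HEPES/NaCl/KCl/MgCl2/CaCl2 buffer with 5% acetonitrile at pH 6.9–7.0, mutagenized RNA pools (0.43 μM; 21-nt variable region) were reacted with 2–1250 μM of each biotinyl-aminoacyl-oxazolone for 90 minutes at room temperature. Streptavidin capture followed, with quantification by triplicate qPCR and Illumina sequencing. Catalytic enhancement is reported as median kA over the uncatalyzed rate, the low-activity peak of a bimodal Gaussian fit to the data.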

[2] = system: biotinyl-Val-oxazolone; assay: self-aminoacylation, catalytic enhancement (BVO) (fold over background); higher = more active; k-Seq, kA / k0A0; sequences stand for … in GGGAAUGGAUCCACAUCUACGAAUUC…UUCACUGCAGACUUGACGAAGCUG
In short: as §1

[3] = system: biotinyl-Ile-oxazolone; assay: self-aminoacylation, catalytic enhancement (BIO) (fold over background); higher = more active; k-Seq, kA / k0A0; sequences stand for … in GGGAAUGGAUCCACAUCUACGAAUUC…UUCACUGCAGACUUGACGAAGCUG
In short: as §1

[4] = system: biotinyl-Phe-oxazolone; assay: self-aminoacylation, catalytic enhancement (BFO) (fold over background); higher = more active; k-Seq, kA / k0A0; sequences stand for … in GGGAAUGGAUCCACAUCUACGAAUUC…UUCACUGCAGACUUGACGAAGCUG
In short: as §1

[5] = system: biotinyl-Met-oxazolone; assay: self-aminoacylation, catalytic enhancement (BMO) (fold over background); higher = more active; k-Seq, kA / k0A0; sequences stand for … in GGGAAUGGAUCCACAUCUACGAAUUC…UUCACUGCAGACUUGACGAAGCUG
In short: as §1

[6] = system: biotinyl-Leu-oxazolone; assay: self-aminoacylation, catalytic enhancement (BLO) (fold over background); higher = more active; k-Seq, kA / k0A0; sequences stand for … in GGGAAUGGAUCCACAUCUACGAAUUC…UUCACUGCAGACUUGACGAAGCUG
In short: as §1

Row | Sequence | self-aminoacylation [1] | self-aminoacylation [2] | self-aminoacylation [3] | self-aminoacylation [4] | self-aminoacylation [5] | self-aminoacylation [6]
1 | CUAGUUCAAACAAUCGGUCUU [Fam1A.1 aminoacylation ribozyme variant] | 3.27 | 1.01 | 1.14 | 5.06 | 1.25 | 1.26
2 | CUAGUUCAAACAAUCGGUGUG [Fam1A.1 aminoacylation ribozyme variant] | 1.79 | 0.947 | 0.992 | 1.63 | 1.4 | 1.63
3 | CUAGUUCAAACAAUGGGUCUG [Fam1A.1 aminoacylation ribozyme variant] | 0.678 | 0.851 | 1.14 | 0.792 | 1.1 | 1.08
4 | CUAUUUCAAAAAAUCGGUCUG [Fam1A.1 aminoacylation ribozyme variant] | 1.73 | 0.85 | 1.13 | 2.31 | 1 | 1.18
5 | CUAUUUCAAACAACCGGUCUG [Fam1A.1 aminoacylation ribozyme variant] | 0.827 | 0.861 | 0.992 | 0.87 | 0.85 | 0.844
6 | CUAUUUCAAACAAUCGGACUG [Fam1A.1 aminoacylation ribozyme variant] | 1.12 | 0.733 | 0.976 | 1.93 | 0.82 | 0.803
7 | CUAUUUCAAACAAUGGGUCUG [Fam1A.1 aminoacylation ribozyme variant] | 0.802 | 0.81 | 0.924 | 0.641 | 0.836 | 0.863
8 | CUAUUUCAAACAAUUGGUCUG [Fam1A.1 aminoacylation ribozyme variant] | 0.736 | 0.873 | 1.01 | 0.87 | 0.994 | 0.929
9 | CUAUUUCAAACAGUCGGUCUG [Fam1A.1 aminoacylation ribozyme variant] | 0.682 | 0.8 | 0.827 | 0.588 | 0.859 | 0.843
10 | CUAUUUCGAACAAUCGGUCUG [Fam1A.1 aminoacylation ribozyme variant] | 0.67 | 0.793 | 0.814 | 0.664 | 0.799 | 0.697
11 | CUCCUUCAAACAAGCGGUCUG [Fam1A.1 aminoacylation ribozyme variant] | 1.25 | 0.83 | 0.98 | 0.811 | 0.734 | 0.774
12 | CUCCUUCAAACAAUCCGUCUG [Fam1A.1 aminoacylation ribozyme variant] | 1.25 | 0.949 | 1.03 | 1.24 | 0.657 | 0.659
13 | CUCCUUCAAACAUUCGGUCUG [Fam1A.1 aminoacylation ribozyme variant] | 1.66 | 1.32 | 1.24 | 3.15 | 1.31 | 1.05
14 | CUCCUUCAAACGAUCGGUCUG [Fam1A.1 aminoacylation ribozyme variant] | 2.2 | 0.925 | 0.833 | 1.86 | 0.833 | 1.21
15 | CUCCUUCAAACUAUCGGUCUG [Fam1A.1 aminoacylation ribozyme variant] | 1.5 | 1.15 | 1.14 | 1.92 | 1.17 | 0.895
16 | CUCCUUCAUACAAUCGGUCUG [Fam1A.1 aminoacylation ribozyme variant] | 0.794 | 0.664 | 0.652 | 0.839 | 0.609 | 0.771
17 | CUCUUUCAAACAAUCGGUCUG [Fam1A.1 aminoacylation ribozyme variant] | 9.95 | 0.908 | 0.972 | 14.2 | 1.13 | 1.21
18 | CUGCACCUAGGUCAUCGGGUG [Fam2.2 aminoacylation ribozyme variant] | 6.48 | 5.11 | 3.76 | 60 | 7.52 | 7.81
19 | CUGCUUCAAACAAUAGGUCUG [Fam1A.1 aminoacylation ribozyme variant] | 0.575 | 0.669 | 0.621 | 0.781 | 0.551 | 0.547
20 | CUGCUUCAAACAAUCGGUCCG [Fam1A.1 aminoacylation ribozyme variant] | 39.6 | 1.38 | 1.35 | 119 | 1.34 | 2.38
21 | CUGCUUCAAACAAUCUGUCUG [Fam1A.1 aminoacylation ribozyme variant] | 1.53 | 0.701 | 0.604 | 4.03 | 0.675 | 0.647
22 | CUGCUUCAAACAAUUGGUCUG [Fam1A.1 aminoacylation ribozyme variant] | 1.19 | 0.657 | 0.789 | 1.54 | 0.715 | 0.726
23 | CUGCUUCAAACGAUCGGUCUG [Fam1A.1 aminoacylation ribozyme variant] | 3.49 | 0.803 | 0.727 | 2.63 | 0.991 | 1.11
24 | CUGCUUCAGACAAUCGGUCUG [Fam1A.1 aminoacylation ribozyme variant] | 1.28 | 0.929 | 0.949 | 1.78 | 1.22 | 1.1
25 | CUGCUUGAAACAAUCGGUCUG [Fam1A.1 aminoacylation ribozyme variant] | 1.07 | 0.959 | 0.9 | 0.928 | 0.842 | 0.867
26 | CUUAACCUAGGUCAUCGGGUG [Fam2.2 aminoacylation ribozyme variant] | 4.21 | 2.69 | 2.91 | 15.8 | 4.25 | 4.78

Row | Sequence | self-aminoacylation [1] | self-aminoacylation [2] | self-aminoacylation [3] | self-aminoacylation [4] | self-aminoacylation [5] | self-aminoacylation [6]
27 | CUUAACCUGGUCAUCGAGUGA [Fam2.1 aminoacylation ribozyme variant] | 6.88 | 3.11 | 2.9 | 5.1 | 5.64 | 4.95
28 | CUUACCCCGGUCAUCGAGUGA [Fam2.1 aminoacylation ribozyme variant] | 6.76 | 3.92 | 3.44 | 19.8 | 6.51 | 6.2
29 | CUUACCCUGAUCAUCGAGUGA [Fam2.1 aminoacylation ribozyme variant] | 9.22 | 3.94 | 3.64 | 16.5 | 7.49 | 7.51
30 | CUUACCCUGGUCAUCAAGUGA [Fam2.1 aminoacylation ribozyme variant] | 3.4 | 1.93 | 1.67 | 4.44 | 2.58 | 2.58
31 | CUUACCCUGGUCAUCGACUGA [Fam2.1 aminoacylation ribozyme variant] | 1.31 | 0.739 | 1.1 | 0.459 | 0.673 | 0.833
32 | CUUACCCUGGUCAUCGAGUGG [Fam2.1 aminoacylation ribozyme variant] | 7.54 | 3.74 | 3.47 | 16.9 | 8.78 | 8.35
33 | CUUACCCUGGUCAUCUAGUGA [Fam2.1 aminoacylation ribozyme variant] | 10.4 | 3.89 | 3.75 | 29.7 | 7.9 | 8.12
34 | CUUCACCCAGGUCAUCGGGUG [Fam2.2 aminoacylation ribozyme variant] | 3.73 | 3.34 | 2.29 | 25.2 | 4.41 | 3.23
35 | CUUCACCUAGGUCACCGGGUG [Fam2.2 aminoacylation ribozyme variant] | 5.51 | 3.81 | 2.92 | 21.9 | 3.54 | 5.4
36 | CUUCACCUAGGUCAGCGGGUG [Fam2.2 aminoacylation ribozyme variant] | 4.01 | 3.88 | 3.62 | 9.81 | 3.27 | 4.96
37 | CUUCACCUAGGUCUUCGGGUG [Fam2.2 aminoacylation ribozyme variant] | 6.37 | 5.98 | 4.13 | 34.1 | 6.17 | 6.81
38 | CUUCUUCAAACAAUCGCUCUG [Fam1A.1 aminoacylation ribozyme variant] | 1.55 | 0.928 | 0.783 | 1.72 | 0.85 | 0.823
39 | CUUCUUCAAACAAUCGGCCUG [Fam1A.1 aminoacylation ribozyme variant] | 28.5 | 1.48 | 1.34 | 31.1 | 1.72 | 1.88
40 | CUUCUUCAAACAAUCGGUCUU [Fam1A.1 aminoacylation ribozyme variant] | 7.08 | 0.925 | 0.878 | 13.4 | 0.814 | 0.997
41 | CUUCUUCAAACACUCGGUCUG [Fam1A.1 aminoacylation ribozyme variant] | 0.901 | 0.977 | 0.938 | 0.651 | 1.04 | 0.791
42 | CUUCUUCAAACUAUCGGUCUG [Fam1A.1 aminoacylation ribozyme variant] | 0.962 | 1.01 | 1.26 | 1.22 | 0.943 | 1
43 | CUUUCCCUGGUCAUCGAGUGA [Fam2.1 aminoacylation ribozyme variant] | 10.6 | 5.04 | 4.62 | 7.03 | 8.78 | 8.95
44 | GAACACUUCAAGCAAUCGGUC [Fam1B.1 aminoacylation ribozyme variant] | 18.6 | 2.03 | 2.05 | 23.3 | 1.53 | 1.96
45 | GAACUUCAAACAAUCGGUCUG [Fam1A.1 aminoacylation ribozyme variant] | 35.8 | 1.66 | 1.85 | 65.3 | 1.7 | 2.4
46 | GACUUUGCUAAUAGUCGCAAG [Fam3.1 aminoacylation ribozyme variant] | 1.97 | 1.72 | 1.74 | 2.88 | 2.11 | 1.85
47 | GAGUUAGCUAAUAGUCGCAAG [Fam3.1 aminoacylation ribozyme variant] | 2.62 | 1.64 | 2.14 | 2.62 | 1.5 | 2.12
48 | GAGUUCGCUAAUAGUCGCAAG [Fam3.1 aminoacylation ribozyme variant] | 2.21 | 2.52 | 2.8 | 8.98 | 1.91 | 2.71
49 | GAGUUUGCCAAUAGUCGCAAG [Fam3.1 aminoacylation ribozyme variant] | 2.08 | 1.48 | 1.7 | 4.39 | 1.1 | 1.09
50 | GAGUUUGCUAAUAGUCGUAAG [Fam3.1 aminoacylation ribozyme variant] | 8.52 | 1.17 | 1.4 | 30.8 | 1.4 | 1.28
51 | GAGUUUGCUACUAGUCGCAAG [Fam3.1 aminoacylation ribozyme variant] | 1.99 | 1.47 | 1.31 | 1.59 | 1.04 | 1.66
